Series [1] concerns the target recombinant wild-type p105, His-tagged (E. coli) (UniProt P25799). Kind of series: SEC. On the technique in general: SEC sorts molecules by how far they enter the pores of the column.
Series [2] deals with the molecule itself. Kind of series: AUC.

Broadly, the stoichiometry N is a count of units in the complex or per binding partner.

Turning to “p50, the 50 kD N-terminal product of recombinant p105 (E. coli) (domain or fragment)”, in series [1], the stoichiometry N is 1.

B1: recombinant wild-type p105, His-tagged (E. coli) (natural protein, UniProt P25799-1 1-971, looked up)
chain: MADDDPYGTGQMFHLNTALTHSIFNAELYSPEIPLSTDGPYLQILEQPKQRGFRFRYVCEGPSHGGLPGASSEKNKKSYPQVKICNYVGPAKVIVQLVTNGKNIHLHAHSLVGKHCEDGVCTVTAGPKDMVVGFANLGILHVTKKKVFETLEARMTEACIRGYNPGLLVHSDLAYLQAEGGGDRQLTDREKEIIRQAAVQQTKEMDLSVVRLMFTAFLPDSTGSFTRRLEPVVSDAIYDSKAPNASNLKIVRMDRTAGCVTGGEEIYLLCDKVQKDDIQIRFYEEEENGGVWEGFGDFSPTDVHRQFAIVFKTPKYKDVNITKPASVFVQLRRKSDLETSEPKPFLYYPEIKDKEEVQRKRQKLMPNFSDSFGGGSGAGAGGGGMFGSGGGGGSTGSPGPGYGYSNYGFPPYGGITFHPGVTKSNAGVTHGTINTKFKNGPKDCAKSDDEESLTLPEKETEGEGPSLPMACTKTEPIALASTMEDKEQDMGFQDNLFLEKALQLARRHANALFDYAVTGDVKMLLAVQRHLTAVQDENGDSVLHLAIIHLHAQLVRDLLEVTSGLISDDIINMRNDLYQTPLHLAVITKQEDVVEDLLRVGADLSLLDRWGNSVLHLAAKEGHDRILSILLKSRKAAPLIDHPNGEGLNAIHIAVMSNSLPCLLLLVAAGAEVNAQEQKSGRTALHLAVEYDNISLAGCLLLEGDAHVDSTTYDGTTPLHIAAGRGSTRLAALLKAAGADPLVENFEPLYDLDDSWEKAGEDEGVVPGTTPLDMAANWQVFDILNGKPYEPVFTSDDILPQGDMKQLTEDTRLQLCKLLEIPDPDKNWATLAQKLGLGILNNAFRLSPAPSKTLMDNYEVSGGTIKELMEALQQMGYTEAIEVIQAAFRTPATTASSPVTTAQVHCLPLSSSSTRQHIDELRDSDSVCDSGVETSFRKLSFTESLTGDSPLLSLNKMPHGYGQEGPIEGKI
In the case of B1, the “stoichiometry N” value in series [2] was 2.

The values are drawn from publication PMC4167889 (Molecular cell, 2009).
